Experimental data as given in US20240166767A1 (SCIRHOM, published 2024).
Numbering of substitutions follows the chain as printed.

T1: dog iRhom1 full length wild type, T7-tagged (dog, UniProt A0A8I3MHT7 11-866)
T1 construct: whole, on cells; also called Dog-iR1-FL-WT-T7; expressed by MEF-DKO-Dog-iR1-FL-WT-T7 cells
T1 sequence: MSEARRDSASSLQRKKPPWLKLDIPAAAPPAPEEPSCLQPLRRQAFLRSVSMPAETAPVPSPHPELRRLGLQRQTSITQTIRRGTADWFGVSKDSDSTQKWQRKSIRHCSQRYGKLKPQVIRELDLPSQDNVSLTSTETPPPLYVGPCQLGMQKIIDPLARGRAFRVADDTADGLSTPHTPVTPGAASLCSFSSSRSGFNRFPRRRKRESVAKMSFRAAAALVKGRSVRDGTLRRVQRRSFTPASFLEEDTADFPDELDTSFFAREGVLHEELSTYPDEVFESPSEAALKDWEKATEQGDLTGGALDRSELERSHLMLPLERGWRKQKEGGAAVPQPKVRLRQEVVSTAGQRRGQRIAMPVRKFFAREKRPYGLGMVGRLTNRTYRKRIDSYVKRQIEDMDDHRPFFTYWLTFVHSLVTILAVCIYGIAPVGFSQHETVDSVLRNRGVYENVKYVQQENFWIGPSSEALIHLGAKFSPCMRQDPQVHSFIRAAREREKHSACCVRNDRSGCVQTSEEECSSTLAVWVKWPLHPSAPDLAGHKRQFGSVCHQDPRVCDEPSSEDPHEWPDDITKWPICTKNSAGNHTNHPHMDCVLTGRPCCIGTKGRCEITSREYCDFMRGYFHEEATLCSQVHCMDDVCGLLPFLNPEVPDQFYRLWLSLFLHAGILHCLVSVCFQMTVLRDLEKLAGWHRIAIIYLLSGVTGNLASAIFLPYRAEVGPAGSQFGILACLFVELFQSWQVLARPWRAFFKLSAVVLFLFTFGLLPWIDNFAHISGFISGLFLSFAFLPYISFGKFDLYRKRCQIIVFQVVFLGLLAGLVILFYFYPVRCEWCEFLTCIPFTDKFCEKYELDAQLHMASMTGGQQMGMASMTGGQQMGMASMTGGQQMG

B1: humanized antibody 42-B-04 (antibody, V domains shown)
VH: QVTLRESGPALVKPTQTLTLTCTFSGFSLSTFGRGVGWIRQPPGKALEWLAHIWWDDEKYYNSALKSRLTISKDTSKNQVVLTITNMDPVDTATYYCARIQNYGSNYWYFDVWGQGTLVTVSS
VL: AIQLTQSPSSLSASVGDRVTITCRASSRISYMFWYQQKPGKAPKVLIYDTSNLASGVPSRFSGSGSGTDYTLTISSLQPEDFATYYCQQWNAYPLTFGQGTKLEIK
notes: Tested as whole humanized antibody produced in CHO cells and detected with anti-human IgG; the general methods speak of human IgG1/Kappa; also called clone 42-B-04
B2: humanized antibody 42-B-02 (antibody, V domains shown)
VH: B1 VH
VL: B1 VL with A92S
notes: Tested as whole humanized antibody from transient expression of heavy chain/kappa light chain pairs in CHO cells, detected with anti-human IgG; the general methods speak of human IgG1/Kappa; also called clone 42-B-02
B3: humanized antibody 23-B-04 (antibody, V domains shown)
VH: B1 VH with R34M, Q101S, D111N
VL: B1 VL with R28S, I29V, F33Y
notes: Tested as whole humanized antibody produced in CHO cells and detected with anti-human IgG; the general methods speak of human IgG1/Kappa; also called clone 23-B-04
B4: humanized antibody 16-B-07 (antibody, V domains shown)
VH: QVTLRESGPALVKPTQTLTLTCTFSGFSLSTFALGVGWIRQPPGKALEWLAHIWWDEDKYYNPALKSRLTISKDTSKNQVVLTITNMDPVDTATYYCARITTYYYGMDYWGQGTLVTVSS
VL: EIVMTQSPDFQSVTPKEKVTITCRASQSIGNHLHWYQQKPDASPKLLIKYASQSISGVPSRFSGSGSGTDFTLTINSLEAEDAATYFCQQSYQWPLTFGQGTKLEIK
notes: Tested as whole humanized antibody produced in CHO cells and detected with anti-human IgG; the general methods speak of human IgG1/Kappa; also called clone 16-B-07
B5: humanized antibody 16-B-03 (antibody, V domains shown)
VH: B4 VH with E57D
VL: B4 VL
notes: Tested as whole humanized antibody produced in CHO cells and detected with anti-human IgG; the general methods speak of human IgG1/Kappa; also called clone 16-B-03
B6: humanized antibody 16-B-05 (antibody, V domains shown)
VH: B4 VH
VL: B4 VL with Q93N
notes: Tested as whole humanized antibody produced in CHO cells and detected with anti-human IgG; the general methods speak of human IgG1/Kappa; The printed LCVD reads SRESGSG where the printed cDNA encodes SRFSGSG; also called clone 16-B-05

Biological target: T1, dog iRhom1 full length wild type, …
Experiment: FACS on MEF-DKO-Dog-iR1-FL-WT-T7 cells
Method: In brief, immortalized MEF-DKO-EV control cells, MEF-DKO-rhesus-iR2-FL-WT-T7 cells, MEF-DKO-cyno-iR2-FL-WT-T7 cells, MEF-DKO-dog-iR2-FL-WT-T7 cells and MEF-DKO-rabbit-iR2-FL-WT-T7 cells, as well as their respective iRhom1 counterparts, were harvested with 10 mM EDTA in PBS, washed and resuspended in FACS buffer (PBS, 3% FBS, 0.05% sodium azide), and seeded in Nunc U-bottom 96-well plates (Thermo Fisher Scientific, USA) at approximately 3×10⁵ cells per well. To pellet cells and remove supernatants, the plates were centrifuged at 1,500 rpm and 4° C. for 3 minutes. For primary staining, cells were resuspended in 100 μl per well of either FACS buffer alone (controls), mouse monoclonal anti-T7 IgG (Merck Millipore, USA) at 3 μg/ml FACS buffer or the antibodies of the invention also at 3 μg/ml FACS buffer and incubated on ice for 1 hour. Afterwards, plates were centrifuged at 1,500 rpm and 4° C. for 3 minutes and washed twice with 200 μl per well of FACS buffer. For secondary staining of previous anti T7 staining, cells were spun down and resuspended in 100 μl per well of PE-conjugated goat anti-mouse IgG F(ab′)2 detection fragment (Dianova, Germany) diluted 1:100 in FACS buffer. For secondary staining of previous staining with humanized antibodies of invention, cells were spun down and resuspended in 100 μl per well of PE-conjugated goat anti-human IgG F(ab′)2 detection fragment (Dianova, Germany) diluted 1:100 in FACS buffer. Protected from light, the cell suspensions were incubated on ice for 1 hour. Plates were then centrifuged at 1,500 rpm and 4° C. for 3 minutes and washed three times with 200 μl per well of FACS buffer. Finally, cells were resuspended in 150 μl per well of FACS buffer and analyzed using a BD Accuri™ C6 Plus flow cytometer (Becton Dickinson, Germany).

Binder | binding result
B1 | no binding (tested: 3 µg/ml)
B2 | no binding (tested: 3 µg/ml)
B3 | no binding (tested: 3 µg/ml)
B4 | no binding (tested: 3 µg/ml)
B5 | no binding (tested: 3 µg/ml)
B6 | no binding (tested: 3 µg/ml)
